Test results as given in IntAct's records for PubMed 23169619.

B1: Protein TIFY 7 (Arabidopsis thaliana (Mouse-ear cress)), Q8W4J8 (parent)
chain: MERDFLGLSDKQYLSNNVKHEVNDDAVEERGLSTKAAREWGKSKVFATSSFMPSSDFQEAKAFPGAYQWGSVSAANVFRRCQFGGAFQNATPLLLGGSVPLPTHPSLVPRVASSGSSPQLTIFYGGTISVFNDISPDKAQAIMLCAGNGLKGETGDSKPVREAERMYGKQIHNTAATSSSSATHTDNFSRCRDTPVAATNAMSMIESFNAAPRNMIPSVPQARKASLARFLEKRKERLMSAMPYKKMLLDLSTGESSGMNYSSTSPT
partner: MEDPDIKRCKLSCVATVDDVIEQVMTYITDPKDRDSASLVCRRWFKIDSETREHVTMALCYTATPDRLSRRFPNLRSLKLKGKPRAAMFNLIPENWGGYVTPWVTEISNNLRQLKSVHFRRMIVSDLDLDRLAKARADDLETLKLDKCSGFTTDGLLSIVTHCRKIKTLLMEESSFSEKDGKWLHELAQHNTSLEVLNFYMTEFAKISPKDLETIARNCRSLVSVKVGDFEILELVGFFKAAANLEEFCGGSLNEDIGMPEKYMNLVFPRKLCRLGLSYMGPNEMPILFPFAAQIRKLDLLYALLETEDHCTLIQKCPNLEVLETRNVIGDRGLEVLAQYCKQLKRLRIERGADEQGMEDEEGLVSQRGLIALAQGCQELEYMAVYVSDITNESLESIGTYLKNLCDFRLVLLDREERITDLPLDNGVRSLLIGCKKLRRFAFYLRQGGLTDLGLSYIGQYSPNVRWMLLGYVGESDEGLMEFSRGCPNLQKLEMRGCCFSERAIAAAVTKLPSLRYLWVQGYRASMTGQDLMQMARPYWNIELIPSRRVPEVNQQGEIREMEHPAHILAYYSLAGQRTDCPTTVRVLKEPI
B2: Protein TIFY 7 (Arabidopsis thaliana (Mouse-ear cress)), Q8W4J8 (parent)
chain: B1 chain

Variants of: B1
Settings: with coi1_arath COI1, O04197

Effect of a mutation on the interaction, disrupting interaction strength:
K233A;R234A;K235A
K233A;R234A
R234A
R223A;K224A

Variants of: B2
Settings: with myc2_arath MYC2, Q39204
Sequence of myc2_arath MYC2, Q39204 (Q39204 whole entry): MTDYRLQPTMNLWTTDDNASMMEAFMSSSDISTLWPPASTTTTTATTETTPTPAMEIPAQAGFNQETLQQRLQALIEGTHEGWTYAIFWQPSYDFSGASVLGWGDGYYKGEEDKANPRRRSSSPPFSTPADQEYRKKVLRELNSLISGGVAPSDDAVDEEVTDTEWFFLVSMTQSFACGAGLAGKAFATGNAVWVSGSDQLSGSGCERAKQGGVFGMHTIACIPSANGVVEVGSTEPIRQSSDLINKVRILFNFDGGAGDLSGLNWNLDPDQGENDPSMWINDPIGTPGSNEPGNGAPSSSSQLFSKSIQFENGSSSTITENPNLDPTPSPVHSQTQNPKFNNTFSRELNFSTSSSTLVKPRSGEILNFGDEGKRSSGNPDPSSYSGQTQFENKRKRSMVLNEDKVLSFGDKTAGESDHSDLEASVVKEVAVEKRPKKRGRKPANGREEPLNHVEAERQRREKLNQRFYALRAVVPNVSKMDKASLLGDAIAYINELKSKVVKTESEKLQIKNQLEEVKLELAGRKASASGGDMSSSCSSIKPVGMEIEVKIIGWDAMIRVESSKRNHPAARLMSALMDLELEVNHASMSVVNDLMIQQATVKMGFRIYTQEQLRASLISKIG

Effect of a mutation on the interaction, disrupting interaction strength:
R234A
K233A;R234A;K235A
K233A;R234A
